Legend:
[1] = target: BMP-9 receptors expressed on HepG2 cells (ATCC HB8065)
[2] = target: BMP-9 receptors expressed on HepG2 cells (ATCC HB8065); experiment: 125I-BMP-9 binding to HepG2 cells
[3] = target: BMP-9 receptors expressed on HepG2 cells (ATCC HB8065); experiment: Scatchard analysis of 125I-BMP-9 binding to HepG2 cells
[4] = target: BMP-9 receptors expressed on HepG2 cells (ATCC HB8065); experiment: 125I-BMP-9 binding to HepG2 cells; the Kd told again in ng/ml
[5] = target: BMP-9 receptors expressed on HepG2 cells (ATCC HB8065); experiment: Scatchard analysis; 2 ng/ml 125I-BMP-9 displaced by unlabelled BMP-9 on HepG2 cells, 20 hours at 4 C

- 3H-thymidine incorporation in HepG2 cells [1]: 5 fold
- ED50 of 3H-thymidine incorporation in HepG2 cells [1]: 10 ng/mL
- Kd [2]: 0.27 nM
- high affinity receptors per cell (receptors per cell) [3]: 10000
- Kd [4]: 8 ng/mL
- Kd [5]: 0.3 nM
B1: recombinant human BMP-9, CHO-derived (mature region of human BMP-9 expressed from the murine/human BMP-9 fusion plasmid) (ligand)
chain: TRECSRSCPRTAPQRQVRAVTRRTRMAHVAAGSTLARRKRSAGAGSHCQKTSLRVNFEDIGWDSWIIAPKEYEAYECKGGCFFPLADDVTPTKHAIVQTLVHLKFPTKVG
modifications: iodinated (125I) where used as the tracer; unlabelled where used as the competitor or in the proliferation assay
